Experimental data reported in US20050130151, “Method and identification of downstream mrna ligands to fmrp and their role in fragile x syndrome and associated disorders” (Emory University, published 2005).

How the values were obtained:
[1] = molecular target: T1, FMRP C-terminus (distal to KH domains, contains RGG box) (Homo sapiens, UniProt Q06787-9 Q06787-9:402-605); assay: filter; K+; abrogated in Li+; conditions: tags: N-terminal T7, C-terminal His (pET21b); label: 32P-UTP; G4
Description: To assess whether the RNAs listed in Table 1 bound FMRP in a G-quartet dependent manner, binding in the presence of Li⁺ versus K⁺ was assessed, and mutants in which the Hoogsteen paired Gs were changed to Cs were generated.

[2] = molecular target: T2, FMRP (full length, iso7) (Homo sapiens, UniProt Q06787-9 Q06787-9:3-605); assay: filter; no binding detected
[3] = molecular target: T2, FMRP (full length, iso7); assay: filter; antisense control in K+
[4] = molecular target: T2, FMRP (full length, iso7); assay: filter; 5-6 nt stem sufficient for high affinity; boundaries mapped by alkaline hydrolysis/filter capture
[5] = molecular target: T1, FMRP C-terminus (distal to KH domains, …); assay: filter; all sc1 binding activity in C-terminal domain; conditions: tags: N-terminal T7, C-terminal His (pET21b); label: 32P-UTP; stem-loop with intramolecular G4
[6] = molecular target: FMRP N-terminus (Homo sapiens, UniProt Q06787-9 Q06787-9:3-218); assay: as above; conditions: tags: N-terminal T7, C-terminal His (pET21b); label: 32P-UTP; stem-loop with intramolecular G4
[7] = molecular target: T2, FMRP (full length, iso7); assay: EMSA; 100 nM FMRP; supershifted by anti-FMRP mAb
[8] = molecular target: FMRP I304N (KH2 mutant, full length) (Homo sapiens, UniProt Q06787-9 Q06787-9:3-605, I304N); assay: filter; nearly as well as wild-type FMRP
[9] = molecular target: T2, FMRP (full length, iso7); assay: filter; minimal effect
[10] = molecular target: T2, FMRP (full length, iso7); assay: filter; no effect versus sc1
[11] = molecular target: T2, FMRP (full length, iso7); assay: filter; severe decrease, undetectable

GGGGAGGCAGGAGGAGGCCGAGG (ssRNA) [Guanine nucleotide exchange factor (KIAA0763) 3'UTR site]
binding result [1]: binds

GUGGAAGGAGUGGCUGGG (ssRNA) [sc1 conserved element only]
binding result [2]: no binding

CCUCGGCCUCCUCCUGCCUCCCC (ssRNA) [Sec7-related GEF antisense transcript]
binding result [3]: no binding

GCUGCGGUGUGGAAGGAGUGGCUGGGUUGCGCACC (ssRNA) [sc1 truncated with 5-6 nt stem (boundaries nt 23-57)]
binding result [4]: binds

GAGCGGCUGCGGUGUGGAAGGAGUGGCUGGGUUGCGCACCUUGGCUUC (ssRNA) [sc1]
binding result [5]: binds | binding result [6]: no binding | binding result [7]: binds | binding result [8]: binds

GAGCGGCUGCGGUGUGGAAGGAGUGGCUGGGAAGCGCACCUUGGCUUC (ssRNA, [none]) [sc1 U49U50 to AA]
binding signal [9]: < 20 fold decrease

GAGCGGCUGCGGUGUGGAAGGAGUGGGUGGGUUGCGCACCUUGGCUUC (ssRNA, [none]) [sc1 C44G]
binding result [10]: binds

GAGCGGCUGCGGUGUGGAAGAAGUGGCUGGGUUGCGCACCUUGGCUUC (ssRNA, [none]) [sc1 G38A]
binding signal [9]: < 20 fold decrease

GAGCGGCUGCGGUGUGGCCGGAGUGGCUGGGUUGCGCACCUUGGCUUC (ssRNA, [none]) [sc1 A35A36 to CC]
binding result [11]: no binding
